Measurements reported in patent US20060281899A1, “Mutants of biotin binding protein” (priority 2002, published 2006).
Values joined by “and” are separate entries in the source; they are usually repeats but may differ in a detail not shown here. Equal values may be shown once.

How the values were obtained:
[1] = IASyS optical biosensor, AVR binding in a biotin cuvette; conditions: for Kd: biotin cuvette, 20.0° C.; for kass / kdiss: biotin cuvette (as for Kd of these proteins)
Protocol: The biotin-binding characteristics of the AVR proteins were studied as previously described using the IASyS optical biosensor (Marttila, A. T., Airenne, K. J., Laitinen, O. H., Kulik, T., Bayer, E. A ., Wilchek, M. and Kulomaa, M. S. (1998) FEBS Lett. 441, 313-317; Laitinen, O. H., Airenne, K. J., Marttila, A. T., Kulik, T., Porkka, E., Bayer, E. A., Wilchek, M. and Kulomaa, M. S. (1999) FEBS Lett. 461, 52-8). Affinities were measured for 2-iminobiotin or biotin at 20.0° C. using a stirring power of 100%. Briefly, the protein under study in biotin-free buffer was allowed to bind to the biotin-coated surface of the IASyS cuvette. As a negative control, the protein under study was saturated with excess biotin prior to (and was also maintained under biotin excess upon) addition to the cuvette. Under these conditions, residual binding to the biotin surface of the cuvette could be regarded as unspecific, and was used as a measure of baseline variation. Binding equilibrium in the experimental cuvette was considered to be attained after no binding was detected as compared to negative control.
The actual dissociation constants (Kd) were calculated for the AVRs according to the kass and kdiss rates measured in a separate assay in different protein concentrations (varying between 10 μM and 100 pM) (Table 4 and FIG. 6). The binding seemed to follow two-order or even more complex kinetics. However, the first 1000 seconds of the binding fitted considerably well to the bi-phasic curve. All measured dissociation rate constants (kdiss) followed the first-order kinetics. Because of the extremely high binding, affinities of the AVRs for biotin could not be determined except for AVR1, AVR2 and AVR7. Binding to 2-iminobiotin was determined only for AVR4/5, and it was similar to that of avidin. The lack of binding for the other AVRs was surprising, since most of them were purified using 2-iminobiotin agarose.

[2] = IASyS reversibility of biotin binding of avidin and AVRs; conditions: biotin cuvette, after addition of free biotin (0.17 mg/ml)
Protocol: The reversibility of biotin binding was studied as follows: Avidin and the AVRs were allowed to bind to a biotin-coated cuvette. After measuring the initial binding (A) as described above, biotin-saturated (0.17 mg/ml) buffer was injected into the cuvette and the amount of proteins remaining bound was measured until no dissociation was seen, again as compared to the negative control cuvette (B). The measurement time was at least 20 minutes. The percent reversibility was calculated as follows: reversibility (%)=100*(A−B)/A. A−B is the amount of liberated proteins after biotin adding.

[3] = Non-reducing SDS-PAGE thermostability, oligomeric forms after boiling; assay type: physicochemical; conditions: boiled 20 minutes
Protocol: (§1) The heat stability of the AVRs was studied by using an SDS-PAGE-based method (Bayer, E. A., Ehrlich-Rogozinski, S. and Wilchek, M. (1996) Electrophoresis 17, 1319-1324). In this method, each protein sample was divided into two fractions one of which was kept biotin-free and the other was supplemented with an excess of biotin. The samples were then mixed with denaturing SDS-PAGE sample buffer (containing β-mercaptoethanol) and incubated at a given temperature for 20 minutes. After heat treatment, the samples were subjected to SDS-PAGE and visualised by staining with Coomassie brilliant blue. The relative proportions of tetrameric and monomeric forms of the AVR proteins (with avidin as the control) were detected. A similar assay, with β-mercaptoethanol omitted from the sample buffer, was performed to examine the presence of intersubunit disulfide-bridges. Sensitivity to proteinase K was studied both in the absence and in the presence of biotin as described (Laitinen, O. H., Airenne, K. J., Marttila, A. T., Kulik, T., Porkka, E., Bayer, E. A., Wilchek, M. and Kulomaa, M. S. (1999) FEBS Lett. 461, 52-8). The isoelectric point of each AVR was determined by isoelectric focusing as previously reported (Marttila, A. T., Airenne, K. J., Laitinen, O. H., Kulik, T., Bayer, E. A., Wilchek, M. and Kulomaa, M. S. (1998) FEBS Lett. 441, 313-317). The glycosylation patterns of the AVR proteins were studied by treating the proteins with Endo Hf and PNGase F glycosidase according to the manufacturer's instructions (New England Biolabs, Mass., USA).

[4] = Isoelectric focusing; assay type: physicochemical
Protocol: as §1

[5] = Differential scanning calorimetry of avidin and AVR4/5 forms; assay type: physicochemical; conditions: for DSC Tm(−biotin): 50 mM sodium phosphate pH 7.0, 100 mM NaCl
Protocol: The thermodynamics of the heat-induced unfolding of the proteins were studied using DSC. The transition midpoint of heat-induced denaturation (Tm) of the avidin and different AVR4/5 forms was studied using a Nano II differential scanning calorimeter (Calorimetric Sciences Corporation, Provo, Utah, USA). The reference cell was filled with buffer whereas the sample cell was filled with proteins dissolved in 50 mM sodium phosphate buffer, pH 7.0 containing 100 mM NaCl. Avidin and AVR4/5(C124S) were also analyzed in 50 mM Na-acetate pH 4.0 containing 100 mM NaCl. Furthermore, AVR4/5 was analyzed in the presence of 2-mercaptoethanol (0.4% v/v). The samples (1.6-9.6 μM) were analyzed both in the absence and presence of a three fold molar excess of biotin/subunit. All samples were degassed before being loaded into the DSC. The thermograms were recorded as a function of temperature; between 25 and 130° C. at a rate of 55.6° C./h (Gonzalez, M., Argarana, C. E. & Fidelio, G. D. (1999) Biomol. Eng. 16, 67-72; Nordlund, H. R., Laitinen, O. H., Uotila, S. T., Nyholm, T., Hytönen, V. P., Slotte, J. P. & Kulomaa, M. S. (2003) J. Biol. Chem. 278, 2479-2483). Data was analyzed using Microcal Origin 6.0 and Cpcalc 2.1 (Applied Thermodynamics, Hunt Valley, Md.). The change in heat capacity upon unfolding (ΔCp) was measured for avidin and AVR4/5(C124S) using DSC data from measurements in pH 4.0 and 7.0. ΔCp was then obtained from the slope of ΔH vs. Tm (Liu, Y. & Sturtevant, J. M. (1996) Biochemistry 35, 3059-3062).

[6] = IAsys reversibility of binding to biotin, AVR4/5 forms; conditions: biotin cuvette
Protocol: The biotin-binding characteristics of the different avidins were studied using an IAsys optical biosensor at 20° C. […] H., Hytönen, V. P., Ahlroth, M. K., Pentikäinen, O. T., Gallagher, C., Nordlund, H. R., Ovod, V., Marttila, A. T., Porkka, E., Heino, S., Johnson, M. S., Airenne, K. J. & Kulomaa, M. S. (2002) Biochem. J. 363, 609-617).

[7] = IAsys optical biosensor, AVR4/5 forms binding to 2-iminobiotin surface; conditions: for Kd: 20° C.
Protocol: The biotin-binding characteristics of the different avidins were studied using an IAsys optical biosensor at 20° C. The reversibility of binding and binding affinities to the 2-iminobiotin surface in 50 mM borate buffer (pH 9.5, 1 M NaCl) were measured as previously reported (Laitinen, O. H., Hytönen, V. P., Ahlroth, M. K., Pentikäinen, O. T., Gallagher, C., Nordlund, H. R., Ovod, V., Marttila, A. T., Porkka, E., Heino, S., Johnson, M. S., Airenne, K. J. & Kulomaa, M. S. (2002) Biochem. J. 363, 609-617).
Briefly, The 2-iminobiotin ligand was immobilized onto the carboxymethyldextran surface of a cuvette using N-hydroxysuccinimide activation. Binding of various concentrations of avidin or avidin mutants onto 2-iminobiotinylated surface were measured in a 50 mM borate buffer (pH 9.5) containing 1 M NaCl at 20° C. The iminobiotin cuvettes were regenerated with 20 mM HCl. The kinetic rate constants for association (kass) and dissociation (kdiss) were calculated using the Fast Fit program package (Affinity Sensors). The obtained rate constants were used to calculate Kd(rel) according to Kd=kdiss/kass. Equilibrium data obtained from measurements with different protein concentrations were used to calculate the dissociation constant Kd(eq).

[8] = read-out: Kd calculated from the equilibrium response data
[9] = read-out: Kd calculated directly from the binding curves

Molecule | Kd [1, 8] | Reversibility of biotin binding [2] | Dimeric form, relative proportion [3] | Monomeric form, relative proportion [3] | pI by isoelectric focusing [4] | kass [1] | further results
AVR3: Recombinant chicken avidin-related protein 3, produced in Sf9 insect cells (protein, UniProt P56733 25-150, looked up) Avidin-related protein 3: ARKCSLTGKWTNNLGSIMTIRAVNSRGEFAGTYLTAVADNPGNIKLSPLLGIQHKRACQPTFGFTVHWNFSESTSVFVGQCFIDRSGKEVLKTKWLQRLAVDDISDDWKATRVGYNNFTRQRTVEE | < 10 nM | 3 ± 2% | 50 percentage | 50 percentage | ≈ 10 |  | 
AVR4/5(N43E): AVR4/5 mutant, residue 43 changed to glutamate to avoid glycosylation (protein, UniProt P56734 25-150, looked up, variant N43E) Avidin-related protein 4/5: ARKCSLTGKWTNNLGSIMTIRAVNSRGEFTGTYLTAVADNPGEITLSPLLGIQHKRASQPTFGFTVHWNFSESTTVFTGQCFIDRNGKEVLKTMWLLRSSVNDISYDWKATRVGYNNFTRLCTVEE |  |  |  |  |  |  | DSC Tm(−biotin) [5]: 104.9 ± 0.3 °C; Reversibility of binding to biotin [6]: 3 ± 2%; kass [7]: (1.3 ± 0.3) × 10^4 M^−1s^−1; kdiss [7]: (1.8 ± 0.8) × 10^−3 s^−1; Kd ([7]; 50 mM borate pH 9.5, 1 M NaCl, read-out: Kd detected from the equilibrium response data): 110 nM; Kd ([7]; pH 9.5, 1 M NaCl, read-out: Kd detected directly from the binding curves): 140 nM
AVR4/5 + 2-mercaptoethanol: AVR4/5 analyzed in the presence of 2-mercaptoethanol (0.4% v/v) (protein, UniProt P56734 25-150, looked up, with 2-mercaptoethanol) Avidin-related protein 4/5: ARKCSLTGKWTNNLGSIMTIRAVNSRGEFTGTYLTAVADNPGNITLSPLLGIQHKRASQPTFGFTVHWNFSESTTVFTGQCFIDRNGKEVLKTMWLLRSSVNDISYDWKATRVGYNNFTRLCTVEE |  |  |  |  |  |  | DSC Tm(−biotin) [5]: 106.5 ± 0.3 °C; ΔTm ([5]; change in Tm upon addition of a three-fold molar excess of biotin): 18.7 °C; ΔH of unfolding ([5]; sample without biotin): 169 ± 6.21 kcal/mol; DSC Tm (+biotin) ([5]; three-fold molar excess of biotin, pH 7.0): 125.2 ± 0.1 °C
AVR1: Recombinant chicken avidin-related protein 1, produced in Sf9 insect cells (protein, UniProt O13153 25-150, looked up) Avidin-related protein 1: ARKCSLTGKWDNDLGSIMTIGAVNDNGEFNGTYITAVADNPGNITRSPLLGIQHKRACQPTFGFTVHWNFSESTSVFVGQCFVDKSGKEVLKTKWLQRLAVDDISDDWKATRVGNNDFTRQRTVEE | 100 nM | 18% and 18 ± 10% | 40 percentage | 40 percentage | ≈ 7 | (5.5 ± 1.5) × 10^4 M^−1 s^−1 | kdiss [1]: (2.4 ± 0.8) × 10^−3 s^−1; Kd [1, 9]: 44 nM; Tetrameric form, relative proportion [3]: 20 percentage
AVR2: Recombinant chicken avidin-related protein 2, produced in Sf9 insect cells (protein, UniProt P56732 25-150, looked up) Avidin-related protein 2: ARKCSLTGEWDNDLGSIMTIGAVNDNGEFDGTYITAVADNPGNITLSPLLGIQHKRASQPTFGFTVHWNFSESTSVFVGQCFVDRSGKEVLKTKWLQRLAVDDISDDWIATRVGNNDFTRQHTVEE | 1700 nM | 94 ± 3% |  | 100 percentage | ≈ 5 | (1.8 ± 0.1) × 10^4 M^−1 s^−1 | kdiss [1]: (4.6 ± 1.1) × 10^−3 s^−1; Kd [1, 9]: 52 nM
AVR6: Recombinant chicken avidin-related protein 6, produced in Sf9 insect cells (protein, UniProt P56735 25-150, looked up) Avidin-related protein 6: ARKCSLTGEWDNNLGSIMTIGAVNDNGEFNGTYITAVADNPGNIKLSPLLGIQHKRACQPTFGFTVHWNFSESTSVFVGQCFVDRSGKEVLKTKWLQRLAVDDISDDWKATRVGYNNFTRQRTVEE | < 10 nM | 5 ± 3% | 50 percentage | 50 percentage | ≈ 7 |  | 
AVR7: Recombinant chicken avidin-related protein 7, produced in Sf9 insect cells (protein, UniProt P56736 25-150, looked up) Avidin-related protein 7: ARKCSLTGEWDNNLGSNMTIGAVNDNGEFNGTYITAVADNPGNIKLSPLLGIQHKRACQPTFGFTVHWNFSESTSVFVGQCFIDRSGKEVLKTKWLQRLAVDDISDDWKATRVGYNNFTRQRTVEE | 4.5 nM | 3 ± 3% | 20 percentage | 80 percentage | ≈ 7 | (1.8 ± 0.2) × 10^5 M^−1 s^−1 | 
